Test [1] has as its target H7N9病毒的HA蛋白(购自ACROBiosystems) (H7N9 influenza virus). Nature of the test: BLI (PALL Fortebio), 3F12 captured on protein A sensor, HA antigen in solution.
Test [2] has the same target. Nature of the test: ELISA, HA coated, supernatant of transfected 293F cells, anti-human IgG-HRP.
In test [3] the target is H7N9病毒 A/Anhui/1/2013 (血凝素HA on virus) (influenza A virus A/Anhui/1/2013 (H7N9)). Nature of the test: cell-based or functional assay.

Several values for one entry are separate records, joined by “and”; a condition that tells them apart may be missing. Equal values may be shown once.

B1: 抗H7N9全人源单克隆抗体3F12 (antibody, V domains shown)
VH: QVQLVESGAEVKKPGASVKVSCKASGYIFNSYDINWVRQATGQGLEWMGWMTPDSGDNGFAQKFQGRVTMTRNTSITTAYMELSSLTSEDTAVYYCANGTADCSSGGSCYTWFDPWGQGTLVTVSS
VL: SSELTQDPAVSVALGQTVRITCQGDRALRSYYASWYQQKPGQAPVLVIYGKTNRPSGIPDRFSGSSSGNTASLTITGAQAEDEADYYCTSRDNSGYHLVFGGGTKLTVLV
For orientation: Kd means the free concentration of one partner at which half of the binding sites on the other are occupied at equilibrium, for simple one-to-one binding. Read a low Kd as higher affinity. As for B1, the Kd in test [1] amounted to 3.5 nM. Further, the OD 450nm in test [2] was 2.31 OD450 and 2.78 OD450 and 2.06 OD450. Besides, the 中和实验 IC50 (微量中和-ELISA, MDCK细胞) in test [3] was determined as 14.3 µg/mL.

Values taken from patent publication CN111320685A.
